{
  "source": "the Human Domainome abundance scans (Beltran et al. 2025)",
  "parents": {"B1": {"name": "Ubiquitin-protein ligase residues 30 to 86; numbered along this chain, Q05086 (parent)", "chain": "KHLIERYYHQLTEGCGNEACTNEFCASCPTFLRMDNNAAAIKALELYKINAKLCDPH"}},
  "note": "± gives the uncertainty stated by the source.",
  "data": [
    {"variants_of": "B1", "assay": "abundance fitness (aPCA) (normalised: wild type 0, dead -1); higher = more abundant; growth selection in yeast, the domain comes from the species named", "conditions": "Homo sapiens", "values": [
      {"variant": "KHLIERYYHQLTEGCGNEACTNEFCASSPTFLRMDNNAAAIKALELYKINAKLCDPH", "abundance fitness": "-0.064 ± 0.053"},
      {"variant": "KHLIERYYHQLTEGCGNEACTNEFCASAPTFLRMDNNAAAIKALELYKINAKLCDPH", "abundance fitness": "-0.019 ± 0.06"},
      {"variant": "KHLIERYYHQLTEGCGNEACTNEFCASRPTFLRMDNNAAAIKALELYKINAKLCDPH", "abundance fitness": "-0.071 ± 0.047"},
      {"variant": "KHLIERYYHQLTEGCGNEACTNEFCASNPTFLRMDNNAAAIKALELYKINAKLCDPH", "abundance fitness": "-0.006 ± 0.085"},
      {"variant": "KHLIERYYHQLTEGCGNEACTNEFCASTPTFLRMDNNAAAIKALELYKINAKLCDPH", "abundance fitness": "-0.07 ± 0.067"},
      {"variant": "KHLIERYYHQLTEGCGNEACTNEFCASVPTFLRMDNNAAAIKALELYKINAKLCDPH", "abundance fitness": "-0.151 ± 0.054"},
      {"variant": "KHLIERYYHQLTEGCGNEACTNEFCASKPTFLRMDNNAAAIKALELYKINAKLCDPH", "abundance fitness": "-0.038 ± 0.075"},
      {"variant": "KHLIERYYHQLTEGCGNEACTNEFCASLPTFLRMDNNAAAIKALELYKINAKLCDPH", "abundance fitness": "-0.217 ± 0.052"},
      {"variant": "KHLIERYYHQLTEGCGNEACTNEFCASIPTFLRMDNNAAAIKALELYKINAKLCDPH", "abundance fitness": "-0.276 ± 0.095"},
      {"variant": "KHLIERYYHQLTEGCGNEACTNEFCASQPTFLRMDNNAAAIKALELYKINAKLCDPH", "abundance fitness": "-0.128 ± 0.08"},
      {"variant": "KHLIERYYHQLTEGCGNEACTNEFCASYPTFLRMDNNAAAIKALELYKINAKLCDPH", "abundance fitness": "-0.06 ± 0.061"},
      {"variant": "KHLIERYYHQLTEGCGNEACTNEFCASFPTFLRMDNNAAAIKALELYKINAKLCDPH", "abundance fitness": "-0.031 ± 0.075"},
      {"variant": "KHLIERYYHQLTEGCGNEACTNEFCASDPTFLRMDNNAAAIKALELYKINAKLCDPH", "abundance fitness": "-0.171 ± 0.084"},
      {"variant": "KHLIERYYHQLTEGCGNEACTNEFCASGPTFLRMDNNAAAIKALELYKINAKLCDPH", "abundance fitness": "-0.183 ± 0.049"},
      {"variant": "KHLIERYYHQLTEGCGNEACTNEFCASPPTFLRMDNNAAAIKALELYKINAKLCDPH", "abundance fitness": "-0.475 ± 0.08"},
      {"variant": "KHLIERYYHQLTEGCGNEACTNEFCASWPTFLRMDNNAAAIKALELYKINAKLCDPH", "abundance fitness": "-0.16 ± 0.055"},
      {"variant": "KHLIERYYHQLTEGCGNEACTNEFCASEPTFLRMDNNAAAIKALELYKINAKLCDPH", "abundance fitness": "-0.144 ± 0.062"},
      {"variant": "KHLIERYYHQLTEGCGNEACTNEFCAMCPTFLRMDNNAAAIKALELYKINAKLCDPH", "abundance fitness": "-0.112 ± 0.072"},
      {"variant": "KHLIERYYHQLTEGCGNEACTNEFCAWCPTFLRMDNNAAAIKALELYKINAKLCDPH", "abundance fitness": "-0.772 ± 0.069"},
      {"variant": "KHLIERYYHQLTEGCGNEACTNEFCAKCPTFLRMDNNAAAIKALELYKINAKLCDPH", "abundance fitness": "-0.06 ± 0.081"},
      {"variant": "KHLIERYYHQLTEGCGNEACTNEFCAHCPTFLRMDNNAAAIKALELYKINAKLCDPH", "abundance fitness": "-0.196 ± 0.093"},
      {"variant": "KHLIERYYHQLTEGCGNEACTNEFCATCPTFLRMDNNAAAIKALELYKINAKLCDPH", "abundance fitness": "-0.113 ± 0.072"},
      {"variant": "KHLIERYYHQLTEGCGNEACTNEFCAQCPTFLRMDNNAAAIKALELYKINAKLCDPH", "abundance fitness": "-0.179 ± 0.091"},
      {"variant": "KHLIERYYHQLTEGCGNEACTNEFCALCPTFLRMDNNAAAIKALELYKINAKLCDPH", "abundance fitness": "-0.523 ± 0.058"},
      {"variant": "KHLIERYYHQLTEGCGNEACTNEFCADCPTFLRMDNNAAAIKALELYKINAKLCDPH", "abundance fitness": "-0.131 ± 0.082"},
      {"variant": "KHLIERYYHQLTEGCGNEACTNEFCARCPTFLRMDNNAAAIKALELYKINAKLCDPH", "abundance fitness": "-0.186 ± 0.05"},
      {"variant": "KHLIERYYHQLTEGCGNEACTNEFCACCPTFLRMDNNAAAIKALELYKINAKLCDPH", "abundance fitness": "-0.061 ± 0.072"},
      {"variant": "KHLIERYYHQLTEGCGNEACTNEFCAACPTFLRMDNNAAAIKALELYKINAKLCDPH", "abundance fitness": "-0.072 ± 0.056"},
      {"variant": "KHLIERYYHQLTEGCGNEACTNEFCAECPTFLRMDNNAAAIKALELYKINAKLCDPH", "abundance fitness": "-0.374 ± 0.069"},
      {"variant": "KHLIERYYHQLTEGCGNEACTNEFCAICPTFLRMDNNAAAIKALELYKINAKLCDPH", "abundance fitness": "-0.763 ± 0.15"},
      {"variant": "KHLIERYYHQLTEGCGNEACTNEFCAPCPTFLRMDNNAAAIKALELYKINAKLCDPH", "abundance fitness": "-0.711 ± 0.098"},
      {"variant": "KHLIERYYHQLTEGCGNEACTNEFCAGCPTFLRMDNNAAAIKALELYKINAKLCDPH", "abundance fitness": "-0.09 ± 0.048"},
      {"variant": "KHLIERYYHQLTEGCGNEACTNEFCAYCPTFLRMDNNAAAIKALELYKINAKLCDPH", "abundance fitness": "-0.441 ± 0.1"},
      {"variant": "KHLIERYYHQLTEGCGNEACTNEFCANCPTFLRMDNNAAAIKALELYKINAKLCDPH", "abundance fitness": "-0.06 ± 0.1"},
      {"variant": "KHLIERYYHQLTEGCGNEACTNEFCAVCPTFLRMDNNAAAIKALELYKINAKLCDPH", "abundance fitness": "-0.594 ± 0.056"},
      {"variant": "KHLIERYYHQLTEGCGNEACTNEFCAFCPTFLRMDNNAAAIKALELYKINAKLCDPH", "abundance fitness": "-0.349 ± 0.082"},
      {"variant": "KHLIERYYHQLTEGCGNEACTNEFCASCPTHLRMDNNAAAIKALELYKINAKLCDPH", "abundance fitness": "-0.013 ± 0.16"},
      {"variant": "KHLIERYYHQLTEGCGNEACTNEFCASCPTELRMDNNAAAIKALELYKINAKLCDPH", "abundance fitness": "-0.124 ± 0.083"},
      {"variant": "KHLIERYYHQLTEGCGNEACTNEFCASCPTPLRMDNNAAAIKALELYKINAKLCDPH", "abundance fitness": "-0.185 ± 0.11"},
      {"variant": "KHLIERYYHQLTEGCGNEACTNEFCASCPTCLRMDNNAAAIKALELYKINAKLCDPH", "abundance fitness": "-0.043 ± 0.087"},
      {"variant": "KHLIERYYHQLTEGCGNEACTNEFCASCPTRLRMDNNAAAIKALELYKINAKLCDPH", "abundance fitness": "-0.14 ± 0.07"},
      {"variant": "KHLIERYYHQLTEGCGNEACTNEFCASCPTNLRMDNNAAAIKALELYKINAKLCDPH", "abundance fitness": "0.027 ± 0.13"},
      {"variant": "KHLIERYYHQLTEGCGNEACTNEFCASCPTILRMDNNAAAIKALELYKINAKLCDPH", "abundance fitness": "-0.169 ± 0.17"},
      {"variant": "KHLIERYYHQLTEGCGNEACTNEFCASCPTGLRMDNNAAAIKALELYKINAKLCDPH", "abundance fitness": "-0.025 ± 0.059"},
      {"variant": "KHLIERYYHQLTEGCGNEACTNEFCASCPTQLRMDNNAAAIKALELYKINAKLCDPH", "abundance fitness": "-0.098 ± 0.12"},
      {"variant": "KHLIERYYHQLTEGCGNEACTNEFCASCPTMLRMDNNAAAIKALELYKINAKLCDPH", "abundance fitness": "0.057 ± 0.11"}
    ]}
  ]
}
